Measured values as given in the supplement of paper PMC9170038.

Test system: MS2 coat protein
Experiment: apparent KD of MS2 coat protein; designed switch direction (-1 OFF switch, 1 ON switch): -1; higher = weaker reporter binding
Outline: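 The apparent KD reported per design is the median over clusters of curve fits to normalised cluster fluorescence. The RNA switches were transcribed on Illumina chips by stalled E. coli RNA polymerase. SNAP-549-labelled MS2 coat protein was titrated from 0.7 or 1.5 nM, doubling up to 3 µM, in Tris-HCl pH 7.5 buffer containing KCl, MgCl2, BSA, DTT, tRNA and Tween-20, with no input, 200 uM small-molecule ligand, or an oligonucleotide input.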

[1] = input ligand: microRNA oligo, concentration not stated
[2] = Eterna round: R95, input ligand: FMN 200 uM
[3] = Eterna round: R95, input ligand: microRNA oligo, concentration not stated
[4] = Eterna round: R95, input ligand: none

Sequence	apparent KD of MS2 coat protein (input ligand: FMN 200 uM) [µM]	apparent KD of MS2 coat protein (input ligand: none) [µM]	apparent KD of MS2 coat protein [1] [µM]	apparent KD of MS2 coat protein [2] [µM]	apparent KD of MS2 coat protein [3] [µM]	apparent KD of MS2 coat protein [4] [µM]
ACAGAGCAAGGAUAUGCCGGGCGUGACAUGAGGAUCACCCAUGUGAUGCCGGUACGUUUAGCAGAAGGUGCAGGCA [EX5 C.2] (Eterna round: R97, puzzle: Exclusion 5)	0.019	0.0148	–	–	–	–
ACAGUACUGCAAGGAUAUCGUUCUAGUUUAUUACGAGAAGGUGCUUUAGUUAUUUCUUUGUGUUGACAUGAGGAUCACCCAUGU [JR_ExcNG1_Sub055] (Eterna round: R96, puzzle: Exclusion NG 1)	0.0189	0.0264	0.0179	–	–	–
ACAGUUCUGCAAGGAUAUCGUCCUAGUUUGUUUCGAGAAGGUGCUUUUGUUUUUUCCUUUUGUUUACAUGAGGAUCACCCAUGU [JR_ExcNG1_Sub051] (Eterna round: R96, puzzle: Exclusion NG 1)	0.0156	0.0189	0.0166	–	–	–
ACAUCCUUAGUAAGGAUAUCGUCCGCCGAGGCGGGCGAGAAGGUACAUGAGGAUCACCCAUGUAUGCAGCAGAU [Eternabot (L2) Solution 59] (Eterna round: R97, puzzle: Brourd's mod of Exclusion 4)	0.0191	0.014	–	–	–	–
ACAUGAGGAUCACCCAUGUAAACAUAAUGGCUCAUGUAGAGUCAGGAUAUGCGUGGCGAACACGCGCAGAAGGGACAAGACUGG [Deportation 24 - Jieux - Exclusion NG 3] (Eterna round: R96, puzzle: Exclusion NG 3)	0.0324	0.031	0.021	–	–	–
ACAUGAGGAUCACCCAUGUAAUGAAGGGUACUAUACUAAACGUAGGAUAUCGAUGUAAGAUUGUACGAGAAGGACGAUUGCCUU [JR_ExcNG3_Sub051] (Eterna round: R96, puzzle: Exclusion NG 3)	–	–	0.0293	–	–	–
ACAUGAGGAUCACCCAUGUCAGGCGGGUCCACUCCGGCUGUUGAGGAUAUAGCCCGGUAUCCGCGCUAGAAGGUGAGGGCCGGC [Aenatbe mod 25] (Eterna round: R96, puzzle: Exclusion NG 3)	0.0231	0.0241	0.0184	–	–	–
ACAUGAGGAUCACCCAUGUCAGGUGGGUCCUCUCCGGCUGUUGAGGAUAUAGUCCGGUAUCCGCGCUAGAAGGUGAGGGCUGGC [Aenatbe mod 16] (Eterna round: R96, puzzle: Exclusion NG 3)	0.0428	0.0384	0.0238	–	–	–
ACAUGAGGAUCACCCAUGUCAGGUUGGUCCUCUCCGGCUGUUGAGGAUAUAGUCCGGUAUCCGCGCUAGAAGGUGAGGGCUGGC [Aenatbe mod 15] (Eterna round: R96, puzzle: Exclusion NG 3)	0.0214	0.0213	0.0172	–	–	–
ACAUGAGGAUCACCCAUGUCCGGCUGGUCCGUCUCGGCUGUCGAGGAUAUAGCACGGUAUCCGCGCUAGAAGGCGGGAGCCGGA [Aenatbe mod 85] (Eterna round: R96, puzzle: Exclusion NG 3)	0.0724	0.0396	0.026	–	–	–
ACAUGAGGAUCACCCAUGUCUGGCUGGUCCGCUCCGGCUGUUGAGGAUAUAGUUCGGUGUUCGCGCUAGAAGGUGAGGGCUGGC [Aenatbe mod 36] (Eterna round: R96, puzzle: Exclusion NG 3)	0.0277	0.0388	0.0244	–	–	–
ACAUGAGGAUCACCCAUGUCUGGCUGGUCUGUUCCGGCUGUUGAGGAUAUAGUCCGGUGUUCGCGCUAGAAGGUGAGGGCUGGA [Aenatbe mod 43] (Eterna round: R96, puzzle: Exclusion NG 3)	0.0545	0.057	0.0329	–	–	–
ACAUGAGGAUCACCCAUGUGAAAACAAUGGCUGACUUUGAGAUAGGAUAUAGGUGCAUAUCAAACCUAGAAGGGUCAUUACUGG [Deportation 91 - Jieux - Exclusion NG 3] (Eterna round: R96, puzzle: Exclusion NG 3)	0.0466	0.0465	0.0353	–	–	–
ACAUGAGGAUCACCCAUGUGAACAUGAUGGCUGAUGUAGAGCUAGGAUAUGAGUGAAUAUCUAUCUCAGAAGGAGCUUGACUGG [Deportation 47 - Jieux - Exclusion NG 3] (Eterna round: R96, puzzle: Exclusion NG 3)	0.0341	0.0232	0.0141	–	–	–
ACAUGAGGAUCACCCAUGUGGGUUCUCCAGCAUAAUAAGAGGUAGGAUAUGCAGUCGCCGAAGGAGCAGAAGGACCGCGUUUAU [Eternabot solution 50] (Eterna round: R96, puzzle: Exclusion NG 3)	0.0671	0.0435	0.0297	–	–	–
ACAUGAGGAUCACCCAUGUUUGGCUGGUUCUCUCCGGCUGUCGAGGAUAUAGUCCGGUAUCCGCGCUAGAAGGUGAGGGCUGGC [Aenatbe mod 6] (Eterna round: R96, puzzle: Exclusion NG 3)	0.017	0.0161	0.0123	–	–	–

Sequence	apparent KD of MS2 coat protein (input ligand: FMN 200 uM) [µM]	apparent KD of MS2 coat protein (input ligand: none) [µM]	apparent KD of MS2 coat protein [1] [µM]	apparent KD of MS2 coat protein [2] [µM]	apparent KD of MS2 coat protein [3] [µM]	apparent KD of MS2 coat protein [4] [µM]
ACAUGCUAGUAGGAUAUCGUACGCCGAAUAGUAUGAGAAGGAUUGACAUGAGGAUCACCCAUGUGAUGCCUGAA [Quveedes] (Eterna round: R97, puzzle: Exclusion 6)	0.022	0.0187	–	–	–	–
ACAUGUAAUGCAGGAUAUUUGACACAUGAGGAUCACCCAUGUGACCAGAGGAAUUGCUAUGAGUCGAAGAAGGGUAUGUACAUG [Ex NG2 #55] (Eterna round: R96, puzzle: Exclusion NG 2)	0.0562	0.0429	0.0447	–	–	–
ACAUGUCAUCGAGGAUAUUGCACACAUGAGGAUCACCCAUGUAUUCGGUUGCUCUCGCGUGAGUUCGAGAAGGCGAUGUACAUU [Ex NG2 #84] (Eterna round: R96, puzzle: Exclusion NG 2)	0.276	0.0489	0.0366	–	–	–
ACAUGUCAUUGAGGAUAUCGCACACAUGAGGAUCACCCAUGUAAACAGAUGCUCAUAAGUGGGUUCGAGAAGGCGAUGUACAUU [Ex NG2 #100] (Eterna round: R96, puzzle: Exclusion NG 2)	0.318	0.117	0.119	–	–	–
ACAUGUCAUUGAGGAUAUUGCAAACAUGAGGAUCACCCAUGUAUACGGAUGCUCUUACGUGAGUUCGAGAAGGCGAUGUACAUU [Ex NG2 #91] (Eterna round: R96, puzzle: Exclusion NG 2)	0.0997	0.0462	0.0397	–	–	–
ACAUGUGUUGUAGGAUAUAGGAUACAUGAGGAUCACCCAUGUGGAUUCAUGUCAAAGGAAACGUCCUAGAAGGACGACAACAUG [Ex NG2 #23] (Eterna round: R96, puzzle: Exclusion NG 2)	0.176	0.0843	0.0532	–	–	–
ACAUGUUAUGUAGGAUAUUAGACACAUGAGGAUCACCCAUGUAACCGGAGGCUUUACUAUGAGUUUGAGAAGGGUAUGAACAUG [Ex NG2 #66] (Eterna round: R96, puzzle: Exclusion NG 2)	0.0781	0.0921	0.0454	–	–	–
ACAUGUUGCGCAGGAUAUGGGACACAUGAGGAUCACCCAUGUGGUUUCAUGUCUAACCAAGCGUCCCAGAAGGGCGUGAACAUG [Ex NG2 #30] (Eterna round: R96, puzzle: Exclusion NG 2)	0.0418	0.0199	0.0208	–	–	–
ACAUUACAUGAGGAUCACCCAUGUGAGGAUAUGGAGCGAUAGUGUCCUGUCGCGUACACCAGAAGGCGCGGGUG [1st #49] (Eterna round: R97, puzzle: Exclusion 1)	0.242	0.271	–	–	–	–
ACCCGCACAAGCACCAGAGACAUGAGGAUCACCCAUGUAUAGUCGCACUAGGGUCUCUCUAGUCUAGCCGUUCGUCA [Eternabot (Original) Solution 44] (Eterna round: R97, puzzle: Sensor, turn-off variant 1)	0.0904	0.213	–	–	–	–
ACCUAACAUGAGGAUCACCCAUGUCAGGAUAUCCGGCCUAUGGAAACAUAGGAAGAACGGAGAAGGGACAGAGG [ChP 04-04-2015 #9] (puzzle: Exclusion 1)	–	–	–	0.0695	0.035	0.0431
ACCUAACAUGAGGAUCACCCAUGUGAGGAUAUGUACAUCGGCUCGCGAAAGUGACCGAACAGAAGGUACAUGGU [EX1 A.26] (Eterna round: R97, puzzle: Exclusion 1)	0.0178	0.0191	–	–	–	–
ACCUAUGAGGAGGAUAUACGGUGCGAAAGGAUGGUAGAAGGCUUCACAUGAGGAUCACCCAUGUCUAUAAGCGA [EX6 #87] (Eterna round: R97, puzzle: Exclusion 6)	0.0278	0.0183	–	–	–	–
ACCUCACAUGAGGAUCACCCAUGUCAGGAUAUACAAGAAAAUAACCGGAAAGAACGGAGUAGAAGGGACAUAAG [Zatigeri] (puzzle: Exclusion 1)	–	–	–	0.0281	0.0153	0.0158
ACCUUACUGGUCAGGAUAUACAGUCUCGGGUGGGUGUAGAAGGGACAUGAGGAUCACCCAUGUAGGUUGCAGCA [alecazam56] (Eterna round: R97, puzzle: Brourd's mod of Exclusion 4)	0.1	0.156	–	–	–	–
